These results are taken from patent publication US20140287989A1 (CENTRE NATIONAL DE LA RECHERCHE SCIENTIFIQUE, published 2014).

Read-outs that look alike come from different tables or passages of the source. Square brackets hold non-standard residues; d marks the D form. Cha = N[C@@H](CC1CCCCC1)C(=O)O

In experiment [1] the target is T1, E. coli β clamp (β subunit of DNA polymerase III, dnaN gene product), N-tagged (E. coli, UniProt P0A988 1-366). The experiment can be described thus: cell-based or functional assay.
T1 sequence (P0A988 whole entry): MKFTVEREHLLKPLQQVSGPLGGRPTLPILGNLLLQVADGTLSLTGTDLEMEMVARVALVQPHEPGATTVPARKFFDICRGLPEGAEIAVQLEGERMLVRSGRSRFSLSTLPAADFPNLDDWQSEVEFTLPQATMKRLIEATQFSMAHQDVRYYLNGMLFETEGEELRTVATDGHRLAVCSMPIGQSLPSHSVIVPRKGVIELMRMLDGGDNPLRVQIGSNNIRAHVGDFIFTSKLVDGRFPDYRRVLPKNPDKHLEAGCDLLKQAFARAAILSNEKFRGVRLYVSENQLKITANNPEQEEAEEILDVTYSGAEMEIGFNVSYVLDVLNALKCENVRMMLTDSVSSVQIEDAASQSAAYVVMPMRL
The target of experiment [2] is T1, E. coli β clamp (β subunit of DNA …). In words: SPR competition against P1.
The target is the same in experiment [3]. The experiment can be described thus: SPR competition on immobilised P1.
The target is the same in experiment [4]. In words: SPR competition on immobilised P1; ΔG = -RT ln Ki.
For experiment [5] the target is unchanged. The experiment can be described thus: SPR competition (Biacore 3000): β ring 0.25 µM mixed with the challenger, injected on immobilised P1.
For experiment [6] the target is unchanged. In words: ITC, peptide 400 µM into β ring 30 µM, 25° C. A general note: In ITC the heat of successive injections is recorded.
Experiment [7] shares this target. In words: SPR direct binding: β protein (0.125 µM to 2 µM) injected on immobilised P1, 1:1 Langmuir model.
The target of experiment [8] is T2, E. coli β clamp (β subunit of DNA polymerase III, dnaN gene product) (E. coli, UniProt P0A988 1-366).
T2 construct: Homodimeric ring; N-tagged protein expressed in BL21 E. coli and purified on Ni-NTA and MonoQ; also called β ring; β protein; not shown: N-terminal tag from the pET15b plasmid
T2 sequence (P0A988 whole entry): as above
The experiment can be described thus: SPR competition: peptide with β ring injected on immobilized P1.

The target in experiment [9] is T2, E. coli β clamp (β subunit of DNA …). The experiment can be described thus: SPR competition; ΔG = -RT ln Ki.
The target is the same in experiment [10]. The experiment can be described thus: SPR competition: peptide with β ring injected on immobilized P1. The source holds these as a separate data set.
For experiment [11] the target is unchanged. Described as above. The source holds these as a separate data set.

By IC50 is commonly meant the concentration needed to halve the response being measured. A higher IC50 goes with weaker potency in that assay. The term Kd denotes the free concentration of one partner at which half of the binding sites on the other are occupied at equilibrium, for simple one-to-one binding.

B1: P7 (Ac Q Cha DLF) (peptide)
peptide: Ac-Q[Cha]DLF-OH
SMILES: CC(=O)N[C@@H](CCC(N)=O)C(=O)N[C@@H](CC1CCCCC1)C(=O)N[C@@H](CC(=O)O)C(=O)N[C@@H](CC(C)C)C(=O)N[C@@H](Cc1ccccc1)C(=O)O
notes: also called Ac-Gln-Cha-Asp-Leu-Phe-OH
On to B1, for which the “IC50, Pol IV based biochemical assay (inhibition of β dependent Pol IV elongation)” value in experiment [1] was 2.8 µM. The “fold decrease in affinity against P14” value in experiment [2] was 2 fold. For the same molecule, the “fold increase in the interaction against P6” value in experiment [3] worked out at 6 fold.

B2: P1, natural C-terminal heptapeptide of E. coli DNA polymerase IV (RQLVLGL) (peptide)
peptide: H-RQLVLGL-OH
notes: Used free in solution as challenger and immobilised on the SPR chip; the way of immobilisation is not described; also called natural Cter heptamer; natural heptapeptide
As for B2, the ΔG in experiment [4] is -7.06 kcal/mol. Further, the IC50 in [5] was 8.85 µM. Also, the Kd was 1000 to 2000 nM in experiment [6] and 285 nM in [7]. Moreover, in experiment [3], the “fold less efficient binding than the whole polymerase (PolIV)” value worked out at 30 fold.

B3: P7, Ac-Gln-Cha-Asp-Leu-Phe-OH (peptide)
peptide: Ac-Q[Cha]DLF-OH
SMILES: CC(=O)N[C@@H](CCC(N)=O)C(=O)N[C@@H](CC1CCCCC1)C(=O)N[C@@H](CC(=O)O)C(=O)N[C@@H](CC(C)C)C(=O)N[C@@H](Cc1ccccc1)C(=O)O
notes: X stands for the non-natural residue; also called Ac Q ChaDLF; AcQChaDLF
As to B3, the IC50 in experiment [8], in experiment [10] and in experiment [11] was 170 nM throughout. The ΔG in experiment [9] is -9.42 kcal/mol.
